Laboratory results from patent US20260193317A1, “COMBINATION THERAPY WITH ACTRIIB RECEPTOR VARIANTS AND GLP-1 AGONISTS” (35PHARMA Inc., priority 2023, published 2026).
Like-named read-outs stand apart in the source and are kept apart here. Blank lines part the entries; values can stand above or below the molecule they belong to.

Tests used:
TGFβ superfamily ligands = assay: Neutralization profile across TGFβ superfamily ligands (HEK293 and HepG2 reporter assays, summary); type: cell-based, human
Description: (§1) Potency testing by neutralization on cell-based assays. Characterization of the activin A, activin B, GDF-8, and GDF-11 inhibition potency (IC50) of the fusion proteins was performed using a cell-based reporter assay. TGFβ-reporter HEK293 cells were obtained from InvivoGen (San Diego, CA, cat. no. hkb-tgfb) and were maintained following the manufacturer's instructions. Briefly, cells were grown in high-glucose DMEM, containing 10% heat-inactivated FBS, 30 μg/mL blasticidin, 250 μg/mL hygromycin B, and 100 μg/mL zeocin (hereafter, “growth medium”). Once the cells reached 70-80% confluence, they were detached in growth medium by gently tapping on the flask. For all assays, cells were seeded in 96-well plates at a density of 20,000 cells per well in growth medium. Cells were left to attach for 10 minutes at room temperature (RT) prior to being transferred to a 37° C. incubator (5% CO2) overnight. The next day, treatments were prepared by combining the appropriate concentration of agent with activin A, activin B, GDF-8, or GDF-11 for 30 min at RT (shaking at 150 rpm). Treatments were conducted in high-glucose DMEM (serum-free and with no selection agents), and the final concentration of cytokine (ligand) was 0.3 nM. Growth medium was removed from the culture plates, and cells were treated with the appropriate mixes of fusion protein and cytokine. Treatment duration was for 18-22 h at 37° C. (5% CO2). All treatments were performed in technical duplicates and at least one or two independent experiments were conducted for each cytokine. At the end of the treatment period, supernatants were transferred to a new plate, and centrifuged at 300 RPM for 3 min. Forty microlitres of supernatant from each condition was transferred to a new plate, into which 180 μL of Quanti-Blue reagent (InvivoGen, cat. no. rep-qbs) was added. Quanti-Blue reagent was prepared following the manufacturer's instructions. Samples were incubated for 45 min at 37° C. At the end of the incubation, absorbance was read at 650 nm. The data were plotted in GraphPad Prism, which was used to calculate IC50 values as a non-linear regression.
Characterization of the BMP-9 and BMP-10 inhibition potency (IC50) of the fusion proteins was performed using a second cell-based reporter assay. Human hepatic HepG2 cells were transfected with a SEAP-encoding plasmid, in which SEAP expression is under the control of the murine Id1 promoter. A stable pool was generated from this transfection. Cells were grown in EMEM, containing 10% heat-inactivated FBS and 200 μg/mL zeocin (hereafter, “HepG2 growth medium”). […] For all assays, cells were seeded in 96-well plates at a confluence of 100,000 cells per well in HepG2 growth medium. Cells were left to attach for 10 minutes at RT prior to being transferred to a 37° C. incubator (5% CO2) overnight. The next day, treatments were prepared in EMEM (2.5% heat-inactivated FBS and with no selection agents) by combining the appropriate concentration of agent with BMP-9 or BMP-10 for 30 min at RT (shaking at 150 rpm). Treatments were conducted in EMEM (2.5% heat-inactivated FBS and with no selection agents), and the final concentration of BMP-9 and BMP-10 was 2 ng/mL and 40 ng/mL, respectively. HepG2 growth medium was removed from the culture plates, and cells were treated with the appropriate mixes of fusion protein and cytokine. Treatment duration was for 20-24 h at 37° C. (5% CO2). […]

BMP-9 = target: T1, BMP-9 (Homo sapiens, UniProt Q9UK05); assay: Small-scale BMP-9 ELISA with CHO supernatants; type: binding; settings: BMP-9 10 ng/mL
T1 sequence (Q9UK05 320-429): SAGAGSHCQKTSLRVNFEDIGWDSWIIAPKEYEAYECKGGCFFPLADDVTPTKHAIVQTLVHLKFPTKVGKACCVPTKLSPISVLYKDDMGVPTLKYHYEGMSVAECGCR
Description: Small-scale testing of ActRIIB-ECD fusion proteins. Additional investigation of a series of exemplary agents was performed using proteins expressed in CHO cells. Briefly, DNA encoding the ActRIIB-ECD-Fc fusion constructs was transfected in cells seeded in 12-well plates in a final volume of 1 ml. After 7 days, the supernatant was harvested, clarified, and the amount of expressed protein in each well was quantified using standard methods. The potency of each agent for inhibition of activin A, BMP-9 and BMP-10 was determined in three separate assays.
The next day, the plate was washed three times. […] Expressed proteins in the supernatants were diluted 1 in 2 in assay diluent (0.5% BSA, 0.05% tween-20 in PBS) and 100 μl was added to the 96-well plate in technical duplicates. After a 1.5-hour incubation at RT, the plate was washed three times. […] In this assay, a loss of signal indicates less binding of the exemplary agent to BMP-9. Results are expressed as a % of the signal obtained with wild-type ActRIIB-Fc (P75).

[1] = SEC-HPLC monomer and HMW content of purified fusion proteins; type: physicochemical; settings: after Protein A purification
Text: Given that protein aggregation can be indicative of reduced conformational stability and decreased activity, Size-Exclusion Chromatography-High Performance Liquid Chromatography (SEC-HPLC) was used to determine the purity of each ActRIIB-ECD construct. This method measured the percentage of intact monomeric species as well as the presence of aggregates and/or degradation products.
All proteins expressed efficiently in CHO and/or 293 cells and purification efficiency of each using Protein A affinity chromatography was similar.

[2] = Single-injection body weight gain in wild-type mice; type: in vivo; settings: single 25 mg/kg subcutaneous injection, after 4 days, vs vehicle
Description: To investigate the target engagement of exemplary ActRIIB-ECD polypeptide constructs in vivo, mice (n=6/group) were injected with given agents (25 mg/kg, subcutaneous injection), and sacrificed after 4 days to assess body weight gain.

GDF-8 = GDF-8 (Homo sapiens, UniProt O14793); assay: TGFβ-reporter HEK293 cell-based assay: GDF-8 neutralization; settings: for IC50: read-out: CBA Potency GDF-8; for CBA potency GDF-8, potency fold-change: relative to reference (P1372 = 1)
Description: as §1

BMP-9 binding, ELISA signal relative to P75 (BMP-9): very low BMP-9 binding
Molecule: P1229: hActRIIB L33W, 14 aa linker, IgG1-DL Fc; SEQ ID 211
improved potency on activin A, GDF-8, and GDF-11 relative to P75 (TGFβ superfamily ligands): ~ 4 fold | high molecular weight (HMW) content (SEC-HPLC) [1]: 3% | monomer content (SEC-HPLC) [1]: 97% | body weight gain [2]: apparent body weight gain that did not reach statistical significance

CBA potency GDF-8, fold-change vs reference (GDF-8; D 0): 1 (ref) | IC50 (GDF-8; D 0): 270 pM | IC50 (GDF-8; D 7, 2-8° C.): 220 pM | IC50 (GDF-8; D 7, RT): 240 pM | CBA potency GDF-8, fold-change vs reference (GDF-8; D 7 after storage at 2-8° C.): 1 (ref) | CBA potency GDF-8, fold-change vs reference (GDF-8; D 7 after storage at room temperature): 1 (ref) | IC50 (GDF-8; D 14, 2-8° C.): 350 pM | IC50 (GDF-8; D 14, RT): 360 pM | IC50 (GDF-8; D 28, 2-8° C.): 450 pM | IC50 (GDF-8; D 28, RT): 440 pM | CBA potency GDF-8, potency fold-change (GDF-8; D 28, storage at 2-8° C.): 1 (ref) fold | CBA potency GDF-8, potency fold-change (GDF-8; D 28, storage at room temperature): 1 (ref) fold | IC50 (GDF-8; D 56, 2-8° C.): 340 pM | IC50 (GDF-8; D 56, RT): 360 pM | BMP-9 binding, ELISA signal relative to P75 (BMP-9): near-undetectable binding to BMP-9
B1: P1372: hActRIIB L33W, 14 aa linker, IgG1 YTE-DL Fc; SEQ ID 231 (protein)
chain: ETRECIYYNANWELERTNQSGLERCEGEQDKRWHCYASWRNSSGTIELVKKGCWLDDFNCYDRQECVATEENPQVYFCCCEGNFCNERFTHLPEAGGPEVTYEPPPTGGGGSGGGGSGGGGTHTCPPCPAPELLGGPSVFLFPPKPKDTLYITREPEVTCVVVDVSHEDPEVKFNWYVDGVEVHNAKTKPREEQYNSTYRVVSVLTVLHQDWLNGKEYKCKVSNKALPAPIEKTISKAKGQPREPQVYTLPPSRDELTKNQVSLTCLVKGFYPSDIAVEWESNGQPENNYKTTPPVLDSDGSFFLYSKLTVDKSRWQQGNVFSCSVMHEALHNHYTQKSLSLSPG
impact of modifications in the Fc sequence on activin A, activin B, GDF-8, and GDF-11 potency (TGFβ superfamily ligands; all ligands): comparable to P1229 | impact of modifications in the Fc sequence on BMP-9 and BMP-10 potency (TGFβ superfamily ligands; both ligands): comparable to P1229 | high molecular weight (HMW) content (SEC-HPLC) [1]: 1% | monomer content (SEC-HPLC) [1]: 99%
